Our source for the Kd, koff and kon values is patent publication US20200384107A1.

pKd: −log10 of the molar value.

This test deals with CD40 (as in Table 2, species and form not stated). The test can be described thus: binding kinetics, method not stated.

5D12 (anti-CD40 antibody) had a pKd of 7.99, a koff of 1.54e-05 s⁻¹ and a kon of 1510 M⁻¹ s⁻¹.

By pKd is commonly meant −log10 of the Kd, conventionally taken in molar units. High values mean a low Kd, low ones a high Kd. As usually defined, the koff is the rate constant with which the complex falls apart. A low value points to a long-lived complex. As a reminder, the kon is a measure of how fast the partners come together. Higher therefore signals fast association.
